Test results taken from paper PMC4824412.
Several values for one entry are separate records, joined by “and”; a condition that tells them apart may be missing. Identical values can stand only once.

Assays:
[1] = biological target: GARPTS, soluble tail switch mutant of human GARP (glycoprotein A repetitions predominant) (human) (UniProt Q14392); test: non-reducing SDS-PAGE and western blot of disulfide-linked complexes; GARPTS (300 ng) and a mixture of pro-TGFβ and latent TGFβ (600 ng) incubated overnight at RT in redox buffer (oxidized glutathione and 2 mM free cysteine), no pull-down; 10% gel, non-reducing; anti-Strep-tag or anti-His-tag antibodies
[2] = biological target: GARPTS, soluble tail switch mutant of human GARP (glycoprotein A repetitions predominant) (human) (UniProt Q14392)

stoichiometry N (GARP per TGFβ) [1] | proliferation of Mv1Lu cells with a constant 60 ng/ml latent TGFβ pre-incubated with 10-40 ng/ml GARPTS; value at approximately 40 ng/ml (0.5 nM) GARPTS [2] [%] | Substance
2 and 1 | < 60 | recombinant latent TGFβ (furin-cleaved pro-TGFβ; LAP non-covalently bound to the mature cytokine) (complex)
2 and 1 |  | recombinant pro-TGFβ (not cleaved by furin) (natural protein)
